Assay results taken from patent publication US20200087367A1 (ACCELERON PHARMA, published 2020).
Where two headings read alike, the source gives them in different places. One block for each binder: values may come before it.

How the values were obtained:
hENG(26-437)-hFc [1] = biological target: T1, hENG(26-437)-hFc (human, UniProt P17813 26-437); experiment: SPR kinetics; HEK293-cell-derived protein
T1 construct: HEK 293, purified; not shown: linker and human IgG1 Fc domain
T1 sequence: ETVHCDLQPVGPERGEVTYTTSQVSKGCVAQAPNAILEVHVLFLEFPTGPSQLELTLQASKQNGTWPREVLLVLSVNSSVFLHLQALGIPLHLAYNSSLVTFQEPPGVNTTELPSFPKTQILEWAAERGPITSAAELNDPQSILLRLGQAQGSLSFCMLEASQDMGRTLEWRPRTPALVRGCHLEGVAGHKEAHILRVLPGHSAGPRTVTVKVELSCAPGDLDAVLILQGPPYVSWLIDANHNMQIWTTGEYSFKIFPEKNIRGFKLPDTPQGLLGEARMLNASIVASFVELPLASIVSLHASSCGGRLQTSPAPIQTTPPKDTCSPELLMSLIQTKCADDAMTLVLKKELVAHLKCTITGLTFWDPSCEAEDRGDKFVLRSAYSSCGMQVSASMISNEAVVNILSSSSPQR

ActRIIA-mFc = biological target: T2, ActRIIA-mFc (human, UniProt P27037 21-135); experiment: SPR (Biacore), ligand amine-coupled to chip, Fc fusion injected
T2 construct: not shown: linker and mouse Fc domain

ActRIIB-mFc = biological target: T3, ActRIIB-mFc (human, UniProt Q13705 20-134); experiment: SPR (Biacore), ligand amine-coupled to CM5 chip, Fc fusion injected
T3 sequence: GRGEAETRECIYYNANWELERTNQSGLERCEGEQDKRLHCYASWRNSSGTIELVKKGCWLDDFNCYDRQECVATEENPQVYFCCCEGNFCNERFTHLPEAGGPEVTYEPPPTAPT

hENG(26-257)-hFc = biological target: T4, hENG(26-257)-hFc (human, UniProt P17813 26-257); experiment: SPR, captured hENG-hFc, soluble BMP9; '-' = Binding undetectable
T4 construct: HEK 293, purified; not shown: linker and human IgG1 Fc domain
T4 sequence: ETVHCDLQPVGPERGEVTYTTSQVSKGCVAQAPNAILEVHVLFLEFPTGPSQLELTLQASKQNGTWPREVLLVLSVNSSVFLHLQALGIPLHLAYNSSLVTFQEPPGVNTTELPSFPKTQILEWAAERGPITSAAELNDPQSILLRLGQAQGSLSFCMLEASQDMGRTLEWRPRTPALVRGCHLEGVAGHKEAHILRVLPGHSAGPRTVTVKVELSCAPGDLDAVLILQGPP
Description: (§1) SPR methodology was used to screen these hENG-hFc protein variants for high-affinity binding to human BMP9 and BMP10. In these experiments, captured hENG-hFc proteins were exposed to soluble BMP9 or BMP10 at 100 nM each.

hENG(438-586)-hFc = biological target: T5, hENG(438-586)-hFc (human, UniProt P17813 438-586); experiment: as above
T5 construct: HEK 293, purified; not shown: linker and human IgG1 Fc domain
T5 sequence: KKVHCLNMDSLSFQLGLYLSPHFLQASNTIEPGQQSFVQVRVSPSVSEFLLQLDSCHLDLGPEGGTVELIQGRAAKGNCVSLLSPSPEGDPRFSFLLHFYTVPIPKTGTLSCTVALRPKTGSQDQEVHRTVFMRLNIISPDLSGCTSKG
Description: as §1

hENG(61-346)-hFc = biological target: T6, hENG(61-346)-hFc (human, UniProt P17813 61-346); experiment: as above
T6 construct: HEK 293, purified; not shown: linker and human IgG1 Fc domain
T6 sequence: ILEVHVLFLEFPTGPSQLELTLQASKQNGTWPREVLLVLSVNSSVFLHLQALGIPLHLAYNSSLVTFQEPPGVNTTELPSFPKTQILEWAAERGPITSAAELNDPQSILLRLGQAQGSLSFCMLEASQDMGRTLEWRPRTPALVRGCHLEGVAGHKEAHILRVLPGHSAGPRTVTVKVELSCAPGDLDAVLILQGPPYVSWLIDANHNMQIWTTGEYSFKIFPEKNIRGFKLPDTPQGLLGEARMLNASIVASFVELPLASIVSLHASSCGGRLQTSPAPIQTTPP
Description: as §1

BMP10pro(22-315)-mFc = biological target: T7, BMP10pro(22-315)-mFc (human, UniProt O95393 22-315); experiment: SPR (Biacore), BMP10pro-Fc captured by anti-Fc antibody, ligand injected
T7 construct: also called mouse Fc equivalent construct; not shown: optional linker and mouse immunoglobulin G1 Fc domain
T7 sequence: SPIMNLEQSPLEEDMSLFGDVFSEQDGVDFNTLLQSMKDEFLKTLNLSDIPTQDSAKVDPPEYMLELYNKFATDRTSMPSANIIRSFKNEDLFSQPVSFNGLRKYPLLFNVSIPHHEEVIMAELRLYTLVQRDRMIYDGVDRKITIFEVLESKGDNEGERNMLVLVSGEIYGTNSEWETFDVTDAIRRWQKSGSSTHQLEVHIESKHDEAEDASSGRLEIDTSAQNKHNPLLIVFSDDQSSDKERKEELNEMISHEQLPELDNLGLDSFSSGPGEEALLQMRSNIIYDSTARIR
Description: (§2) The BMP10pro-Fc proteins were separately was captured onto the system using an anti-Fc antibody, and ligands were injected and allowed to flow over the captured receptor protein. […] The mouse Fc equivalent constructs behaved similarly. […] The affinity of BMP10pro(22-315)-hFc for BMP3b was not assessed.

BMP10pro(22-312)-mFc = biological target: T8, BMP10pro(22-312)-mFc (human, UniProt O95393 22-312); experiment: as above
T8 construct: also called mouse Fc equivalent construct; not shown: optional linker and mouse immunoglobulin G1 Fc domain
T8 sequence: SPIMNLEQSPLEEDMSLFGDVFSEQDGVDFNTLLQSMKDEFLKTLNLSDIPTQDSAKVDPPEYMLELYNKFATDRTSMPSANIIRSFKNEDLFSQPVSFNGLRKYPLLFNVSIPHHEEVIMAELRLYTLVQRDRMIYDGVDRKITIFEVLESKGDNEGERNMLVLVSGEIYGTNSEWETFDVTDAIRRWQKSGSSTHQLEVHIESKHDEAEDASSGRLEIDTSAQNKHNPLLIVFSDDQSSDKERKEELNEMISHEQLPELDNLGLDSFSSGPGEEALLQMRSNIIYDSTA
Description: as §2

hENG(26-437)-hFc [2] = biological target: T1, hENG(26-437)-hFc; experiment: SPR kinetics; HEK293-cell-derived protein; remark: listed apart in the source

T2 sequence (P27037 21-135): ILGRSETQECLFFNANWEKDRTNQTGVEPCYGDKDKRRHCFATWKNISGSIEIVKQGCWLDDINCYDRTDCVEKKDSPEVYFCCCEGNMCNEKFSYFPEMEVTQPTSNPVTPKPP

Kd (hENG(26-437)-hFc [1]): 0.019 nM
koff (hENG(26-437)-hFc [1]): 0.0014 s⁻¹
binding result (ActRIIA-mFc): binds
binding result (ActRIIB-mFc): binds
binding result (hENG(26-257)-hFc): no binding (tested: 100 nM)
binding result (hENG(438-586)-hFc): no binding (tested: 100 nM)
binding result (hENG(61-346)-hFc): no binding (tested: 100 nM)
binding result (BMP10pro(22-315)-mFc): binds
binding result (BMP10pro(22-312)-mFc): binds
B1: BMP9 (ligand, human, UniProt Q9UK05 320-429, looked up)
chain: SAGAGSHCQKTSLRVNFEDIGWDSWIIAPKEYEAYECKGGCFFPLADDVTPTKHAIVQTLVHLKFPTKVGKACCVPTKLSPISVLYKDDMGVPTLKYHYEGMSVAECGCR
notes: also called hBMP-9; hBMP9

Kd (hENG(26-437)-hFc [2]): 0.13 nM
koff (hENG(26-437)-hFc [2]): 0.0028 s⁻¹
binding result (ActRIIA-mFc): binds
binding result (ActRIIB-mFc): binds
binding result (BMP10pro(22-315)-mFc): binds
binding result (BMP10pro(22-312)-mFc): binds
B2: BMP10 (ligand)
chain: NAKGNYCKRTPLYIDFKEIGWDSWIIAPPGYEAYECRGVCNYPLAEHLTPTKHAIIQALVHLKNSQKASKACCVPTKLEPISILYLDKGVVTYKFKYEGMAVSECGCR
notes: also called hBMP-10; hBMP10
